1 molecule from US20240166745A1 (Eli Lilly, published 2024) can be followed below.

The target in assay [1] is T1, cell membrane-expressed human LAG-3 (human, UniProt P18627 23-525).
T1 construct: also called hLAG-3; CD223
T1 sequence: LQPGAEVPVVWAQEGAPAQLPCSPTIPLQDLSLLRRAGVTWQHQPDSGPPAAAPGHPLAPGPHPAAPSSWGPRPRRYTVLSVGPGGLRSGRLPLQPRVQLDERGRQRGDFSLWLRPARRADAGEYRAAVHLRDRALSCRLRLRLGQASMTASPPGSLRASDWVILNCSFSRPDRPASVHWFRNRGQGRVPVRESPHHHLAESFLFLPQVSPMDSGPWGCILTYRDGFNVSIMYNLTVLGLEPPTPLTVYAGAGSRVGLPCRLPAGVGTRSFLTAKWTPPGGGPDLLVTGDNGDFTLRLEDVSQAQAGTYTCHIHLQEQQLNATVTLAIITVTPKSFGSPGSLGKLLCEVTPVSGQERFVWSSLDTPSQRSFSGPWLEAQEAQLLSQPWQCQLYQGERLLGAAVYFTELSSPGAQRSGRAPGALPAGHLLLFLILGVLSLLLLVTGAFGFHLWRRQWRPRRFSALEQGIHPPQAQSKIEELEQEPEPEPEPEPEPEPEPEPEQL
Description: flow cytometry, labeled antibody on anti-CD3 activated human PBMC, CD8 T cells, percent of cells bound (mean +/- SEM, n=3). Here is the method: (§1) Cells were incubated with 10-12 point, 3-fold serial dilutions of the respective labeled antibody (Invitrogen #S20026, Invitrogen #C20029), starting at 30 ug/mL, in PBS+2% FCS for 30 minutes at 4° C. and containing the following: CD4 eBioscience #12-0047-42 or Biolegend #344634; CD8 eBioscience #25-0088-42; CD3 eBioscience 56-0038-82 for human cells and BD #557917 for cyno cells; CD33 eBioscience 45-0338-42 for human cells; Live/Dead eBioscience #65-0865-18. After washing thoroughly, cells were processed on a BD Fortessa or Fortessa X20 cytometer, and data were analyzed with Flowjo software (BD Biosciences). Percent of cells bound by the respective antibody is quantified and graphed with Prism (Graphpad, San Diego, CA).
(In general: In flow cytometry, cells or beads pass a laser one at a time.)

Assay [2] has as its target T2, Cynomolgus LAG-3-ECD (cynomolgus).
T2 construct: as printed it starts with the N-terminal leader (MWEAQ...) and ends with a His tag; also called Cynomolgus LAG-3 ECD-His
T2 chain: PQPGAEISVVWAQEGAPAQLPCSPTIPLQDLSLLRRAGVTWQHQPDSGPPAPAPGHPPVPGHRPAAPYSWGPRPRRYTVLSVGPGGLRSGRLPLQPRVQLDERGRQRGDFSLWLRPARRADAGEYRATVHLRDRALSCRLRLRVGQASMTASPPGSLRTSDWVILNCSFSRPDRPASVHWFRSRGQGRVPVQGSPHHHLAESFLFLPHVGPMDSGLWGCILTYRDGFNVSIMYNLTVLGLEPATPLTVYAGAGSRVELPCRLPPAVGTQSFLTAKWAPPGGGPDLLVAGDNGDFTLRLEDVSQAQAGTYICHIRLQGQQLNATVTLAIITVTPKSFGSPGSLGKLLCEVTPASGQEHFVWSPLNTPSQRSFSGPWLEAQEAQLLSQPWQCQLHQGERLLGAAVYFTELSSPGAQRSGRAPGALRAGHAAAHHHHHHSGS
Nature of the assay: SPR (Biacore T200), antibody captured on PrismA chip, ECD as analyte, 37° C. Here is the method: (§2) A Biacore® T200 (Cytiva, Marlborough, MA) was used to measure the binding kinetics and affinities of the LAG-3 antibody to the LAG-3 soluble extracellular domain (ECD) and the bispecific antibody to soluble LAG-3-ECD and PD-1-ECD (human: Sino Biologicals, Cat #10377-H08H; cynomolgus: Sino Biologicals, Cat #90311-C08H) by surface plasmon resonance. Samples were diluted in HBS-EP+ (10 mM Hepes, 150 mM NaCl, 3 mM EDTA, 0.05% Tween-20, pH 7.6) (Teknova Cat #H8022) with 5 g/L of BSA (Jackson ImmunoResearch Cat #001-000-161) running buffer. PrismA Series S Sensor chip (Cat #29650263) is purchased from Cytiva.
(§3) Binding was evaluated using multi-cycle kinetics by an antibody capture method. Each cycle was performed at either 37° C. or 25° C. at a flow rate of 10 μL/min for antibody capture to the PrismA chip and 100 μL/min for analyte association (with 120 sec contact time) and dissociation (900 sec). Each cycle consisted of the following steps: injection of bispecific antibody at 1 μg/mL in HBS-EP+ targeting Rmax values of 125 RU (LAG-3 arm), 294 RU (PD-1 arm) and 63 RU (LAG-3 antibody) on flow cell, injection of analyte in HBS-EP+(concentration range of 62.5 nM to 0.25 nM by two-fold serial dilution for both human PD-1-ECD-His (SEQ ID NO: 40) and human LAG-3-His (SEQ ID NO: 42) followed by 900-second dissociation phase, and regeneration using 10 μL of 10 mM glycine hydrochloride, pH 1.5 over a 60-second contact time utilizing a 10 μL/min flow rate. All analyte concentrations were determined utilizing monomeric molecular weight (MW) values. Association rates (kₒₙ) and dissociation rates (koff) for LAG-3-ECD and PD-1-ECD were evaluated using double referencing by flow-cell one reference subtraction in addition to 0 nM blank subtraction and fit to “1:1 (Langmuir) binding” model in the BIAevaluation software version 4.1. The dissociation constant (KD) was calculated from the binding kinetics according to the relationship KD=Koff/Kₒₙ. Stoichiometry=[RUₘₐₓ/RUcaptured]/[MWanalyte/MWantibody] where MWAntibodyA is 150 kDa. Values are reported as mean±standard deviation.

Assay [3] concerns the target T3, Human LAG-3 ECD-His (human, UniProt P18627 23-449).
T3 construct: Soluble analyte in SPR; the entry includes linker and His tag; also called human LAG-3-His
T3 sequence: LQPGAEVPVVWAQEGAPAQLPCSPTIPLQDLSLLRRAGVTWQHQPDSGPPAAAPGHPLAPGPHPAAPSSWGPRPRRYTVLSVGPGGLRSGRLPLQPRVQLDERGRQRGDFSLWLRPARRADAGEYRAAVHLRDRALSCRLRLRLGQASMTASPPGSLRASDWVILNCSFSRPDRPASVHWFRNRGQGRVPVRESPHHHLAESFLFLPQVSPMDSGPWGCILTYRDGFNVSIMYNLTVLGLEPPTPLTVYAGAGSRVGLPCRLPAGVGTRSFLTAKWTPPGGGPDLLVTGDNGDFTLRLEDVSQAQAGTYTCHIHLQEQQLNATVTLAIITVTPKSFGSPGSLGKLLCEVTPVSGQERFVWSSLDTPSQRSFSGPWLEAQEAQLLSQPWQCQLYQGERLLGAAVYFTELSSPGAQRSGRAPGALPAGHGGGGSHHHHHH
The assay is described as above. Here is the method: as §2, §3

Assay [4] has as its target T1, cell membrane-expressed human LAG-3. Nature of the assay: flow cytometry, labeled antibody on anti-CD3 activated human PBMC, CD4 T cells, percent of cells bound (mean +/- SEM, n=3). The method, then: as §1
For assay [5], the target named is T4, cell surface cynomolgus monkey LAG-3 (cynomolgus).
T4 construct: whole, on cells
Description: flow cytometry, labeled antibody on anti-CD3 activated cynomolgus PBMC, CD8 T cells, percent of cells bound (mean +/- SEM, n=3). The method, then:
as §1

Assay [6] has as its target T4, cell surface cynomolgus monkey LAG-3. Description: flow cytometry, labeled antibody on anti-CD3 activated cynomolgus PBMC, CD4 T cells, percent of cells bound (mean +/- SEM, n=3). Here is the method: as §1

B1: Antibody E (antibody, V domains shown)
VH: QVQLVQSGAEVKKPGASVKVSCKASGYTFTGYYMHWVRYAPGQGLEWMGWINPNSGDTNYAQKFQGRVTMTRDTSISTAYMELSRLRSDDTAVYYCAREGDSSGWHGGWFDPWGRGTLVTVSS
VL: DIVMTQTPLSLPVTPGEPASISCRSSQSLLDSAEGSTYLDWFLRKPGDSPQLLIYTLSYRASGVPDRFSGSGSGTDFTLKISRVEAEDVGVYYCMQRVEFPYTFGQGTKVEIKR
notes: Monospecific LAG-3 antibody; also called human LAG-3 Antibody E
Regarding B1, the EC50 in assay [1] is 3.4 ng/mL; in assay [4], 8.7 ng/mL; in assay [5], 6.5 ng/mL; in assay [6], 10.5 ng/mL. For the same molecule, the Kd in assay [2] worked out at 0.038 nM; in assay [3] it was 1 nM. For the same molecule, the koff came to 0.0042 s⁻¹ in assay [2] and 0.16 s⁻¹ in assay [3]. In addition, the figures for the kon in assay [2] and in assay [3] were 1.1e+08 M⁻¹ s⁻¹ and 1.5e+08 M⁻¹ s⁻¹, respectively.

Usually EC50 stands for the concentration giving half of the maximal effect. The term Kd denotes the constant that tells how readily two partners part at equilibrium. The koff is a measure of how fast the partners let go of each other. The term kon denotes the second-order rate constant of association.
